Assay results as given in publication PMC12667410 (Cell chemical biology, 2024).

What was measured:
SIRT5 = target: T1, SIRT5 (Homo sapiens, UniProt Q9NXA8); assay: SIRTify cell-free assay, SIRT5; format: biochemical; conditions: ratio of IC50 values
T1 sequence (Q9NXA8 37-310): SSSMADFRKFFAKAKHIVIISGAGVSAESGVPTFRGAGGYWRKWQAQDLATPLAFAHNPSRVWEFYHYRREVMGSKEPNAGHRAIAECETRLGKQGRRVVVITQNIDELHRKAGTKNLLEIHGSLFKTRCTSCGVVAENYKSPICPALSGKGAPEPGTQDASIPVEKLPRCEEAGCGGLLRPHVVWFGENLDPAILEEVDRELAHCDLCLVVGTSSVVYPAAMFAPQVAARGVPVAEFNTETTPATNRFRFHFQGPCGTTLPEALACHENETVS

[1] = target: LgBiT Protein (LgBiT subunit of the NanoBiT luciferase; large, truncated fragment of NanoLuc) (Oplophorus gracilirostris); assay: split reporter

Compound | lower IC50 for SIRT5 deglutarylase compared to desuccinylase activity (SIRT5) | fold decrease in luminescent signal against unmodified p86 [1] [fold] | fold reduced affinity compared to p86 [1] [fold]
O=C(O)CCNC(=S)NCCCC[C@H](NS(=O)(=O)c1cccc(F)c1)C(=O)N[C@@H](Cc1c[nH]c2ccccc12)C(=O)NC1CCC1 [SIRT5 Inhibitor I (S5I1)] | approximately 3 fold | – | –
p86-Succinyl8: H2N-VSGWRLF(KSuc)KIS-OH (peptide) | – | 1.7 | –
p86-Succinyl8,9: H2N-VSGWRLF(KSuc)(KSuc)IS-OH (peptide) | – | 7.5 | –
p86-Acetyl8: H2N-VSGWRLF(KAc)KIS-OH (peptide) | – | 1.1 | –
p86-Succinyl9: H2N-VSGWRLFK(KSuc)IS-OH (peptide) | – | 1.7 | –

Next, values leading:

lower IC50 for SIRT5 deglutarylase compared to desuccinylase activity (SIRT5) | fold decrease in luminescent signal against unmodified p86 [1] [fold] | fold reduced affinity compared to p86 [1] [fold] | Compound
– | 5.8 | 175 | p86-Acetyl8,9: H2N-VSGWRLF(KAc)(KAc)IS-OH (peptide)
– | 1.1 | – | p86-Acetyl9: H2N-VSGWRLFK(KAc)IS-OH (peptide)
